These results are taken from the Human Domainome abundance scans (Beltran et al. 2025).

± gives the uncertainty stated by the source.

B1: Ubiquitin-protein ligase residues 30 to 86; numbered along this chain, Q05086 (parent)
chain: KHLIERYYHQLTEGCGNEACTNEFCASCPTFLRMDNNAAAIKALELYKINAKLCDPH

In the data set the parent is B1. Put plainly: abundance fitness (aPCA) (normalised: wild type 0, dead -1); higher = more abundant; growth selection in yeast, the domain comes from the species named. The settings on record: Homo sapiens.
On to MHLIERYYHQLTEGCGNEACTNEFCASCPTFLRMDNNAAAIKALELYKINAKLCDPH [K1M], for which the abundance fitness is -0.253 ± 0.14. With RHLIERYYHQLTEGCGNEACTNEFCASCPTFLRMDNNAAAIKALELYKINAKLCDPH [K1R] the figure was -0.102 ± 0.11.

As for SHLIERYYHQLTEGCGNEACTNEFCASCPTFLRMDNNAAAIKALELYKINAKLCDPH [K1S], the abundance fitness is -0.833 ± 0.28. With VHLIERYYHQLTEGCGNEACTNEFCASCPTFLRMDNNAAAIKALELYKINAKLCDPH [K1V] the figure was -0.517 ± 0.23; with FHLIERYYHQLTEGCGNEACTNEFCASCPTFLRMDNNAAAIKALELYKINAKLCDPH [K1F], -0.53 ± 0.32; with LHLIERYYHQLTEGCGNEACTNEFCASCPTFLRMDNNAAAIKALELYKINAKLCDPH [K1L], -0.577 ± 0.27.

Take NHLIERYYHQLTEGCGNEACTNEFCASCPTFLRMDNNAAAIKALELYKINAKLCDPH [K1N]: the abundance fitness is -0.397 ± 0.23. In the case of CHLIERYYHQLTEGCGNEACTNEFCASCPTFLRMDNNAAAIKALELYKINAKLCDPH [K1C], the abundance fitness was -0.33 ± 0.25. As for PHLIERYYHQLTEGCGNEACTNEFCASCPTFLRMDNNAAAIKALELYKINAKLCDPH [K1P], the abundance fitness is -0.719 ± 0.41. With EHLIERYYHQLTEGCGNEACTNEFCASCPTFLRMDNNAAAIKALELYKINAKLCDPH [K1E] the figure was -0.368 ± 0.31. AHLIERYYHQLTEGCGNEACTNEFCASCPTFLRMDNNAAAIKALELYKINAKLCDPH [K1A]: the abundance fitness is -0.757 ± 0.29. As for YHLIERYYHQLTEGCGNEACTNEFCASCPTFLRMDNNAAAIKALELYKINAKLCDPH [K1Y], the abundance fitness was -0.31 ± 0.36.

As for GHLIERYYHQLTEGCGNEACTNEFCASCPTFLRMDNNAAAIKALELYKINAKLCDPH [K1G], the abundance fitness was -0.476 ± 0.27. For THLIERYYHQLTEGCGNEACTNEFCASCPTFLRMDNNAAAIKALELYKINAKLCDPH [K1T] the value was -0.1 ± 0.15; for KHLIEDYYHQLTEGCGNEACTNEFCASCPTFLRMDNNAAAIKALELYKINAKLCDPH [R6D], -0.028 ± 0.058. With KHLIECYYHQLTEGCGNEACTNEFCASCPTFLRMDNNAAAIKALELYKINAKLCDPH [R6C] the figure was -0.271 ± 0.058; with KHLIEEYYHQLTEGCGNEACTNEFCASCPTFLRMDNNAAAIKALELYKINAKLCDPH [R6E], -0.078 ± 0.071. Regarding KHLIEAYYHQLTEGCGNEACTNEFCASCPTFLRMDNNAAAIKALELYKINAKLCDPH [R6A], the abundance fitness is -0.021 ± 0.051. With KHWIERYYHQLTEGCGNEACTNEFCASCPTFLRMDNNAAAIKALELYKINAKLCDPH [L3W] the figure was -0.049 ± 0.057; with KHEIERYYHQLTEGCGNEACTNEFCASCPTFLRMDNNAAAIKALELYKINAKLCDPH [L3E], -0.206 ± 0.081. With KHSIERYYHQLTEGCGNEACTNEFCASCPTFLRMDNNAAAIKALELYKINAKLCDPH [L3S] the figure was -0.004 ± 0.057; with KHRIERYYHQLTEGCGNEACTNEFCASCPTFLRMDNNAAAIKALELYKINAKLCDPH [L3R], -0.077 ± 0.047; with KHIIERYYHQLTEGCGNEACTNEFCASCPTFLRMDNNAAAIKALELYKINAKLCDPH [L3I], -0.039 ± 0.092. With KHYIERYYHQLTEGCGNEACTNEFCASCPTFLRMDNNAAAIKALELYKINAKLCDPH [L3Y], the abundance fitness is -0.021 ± 0.11. For KHPIERYYHQLTEGCGNEACTNEFCASCPTFLRMDNNAAAIKALELYKINAKLCDPH [L3P] the value was -0.204 ± 0.078. As for KHQIERYYHQLTEGCGNEACTNEFCASCPTFLRMDNNAAAIKALELYKINAKLCDPH [L3Q], the abundance fitness turned out to be 0.014 ± 0.083. Regarding KHCIERYYHQLTEGCGNEACTNEFCASCPTFLRMDNNAAAIKALELYKINAKLCDPH [L3C], the abundance fitness was -0.005 ± 0.088. With KHNIERYYHQLTEGCGNEACTNEFCASCPTFLRMDNNAAAIKALELYKINAKLCDPH [L3N] the figure was -0.057 ± 0.11. For KHDIERYYHQLTEGCGNEACTNEFCASCPTFLRMDNNAAAIKALELYKINAKLCDPH [L3D] the value was -0.264 ± 0.082. With KHMIERYYHQLTEGCGNEACTNEFCASCPTFLRMDNNAAAIKALELYKINAKLCDPH [L3M] the figure was 0.048 ± 0.074. For KHVIERYYHQLTEGCGNEACTNEFCASCPTFLRMDNNAAAIKALELYKINAKLCDPH [L3V], the abundance fitness was -0.474 ± 0.058. For KHGIERYYHQLTEGCGNEACTNEFCASCPTFLRMDNNAAAIKALELYKINAKLCDPH [L3G] the value was -0.129 ± 0.049; for KHAIERYYHQLTEGCGNEACTNEFCASCPTFLRMDNNAAAIKALELYKINAKLCDPH [L3A], -0.334 ± 0.055. Consider KHKIERYYHQLTEGCGNEACTNEFCASCPTFLRMDNNAAAIKALELYKINAKLCDPH [L3K], for which the abundance fitness came out at 0.003 ± 0.096. As for KLLIERYYHQLTEGCGNEACTNEFCASCPTFLRMDNNAAAIKALELYKINAKLCDPH [H2L], the abundance fitness was -0.005 ± 0.066.

In the case of KALIERYYHQLTEGCGNEACTNEFCASCPTFLRMDNNAAAIKALELYKINAKLCDPH [H2A], the abundance fitness is -0.041 ± 0.085. Consider KKLIERYYHQLTEGCGNEACTNEFCASCPTFLRMDNNAAAIKALELYKINAKLCDPH [H2K], for which the abundance fitness is -0.021 ± 0.12.

Consider KQLIERYYHQLTEGCGNEACTNEFCASCPTFLRMDNNAAAIKALELYKINAKLCDPH [H2Q], for which the abundance fitness was 0.025 ± 0.071.

KTLIERYYHQLTEGCGNEACTNEFCASCPTFLRMDNNAAAIKALELYKINAKLCDPH [H2T]: the abundance fitness was -0.085 ± 0.099. For KELIERYYHQLTEGCGNEACTNEFCASCPTFLRMDNNAAAIKALELYKINAKLCDPH [H2E] the value was -0.055 ± 0.086; for KDLIERYYHQLTEGCGNEACTNEFCASCPTFLRMDNNAAAIKALELYKINAKLCDPH [H2D], 0.082 ± 0.11; for KSLIERYYHQLTEGCGNEACTNEFCASCPTFLRMDNNAAAIKALELYKINAKLCDPH [H2S], 0.019 ± 0.071. As to KCLIERYYHQLTEGCGNEACTNEFCASCPTFLRMDNNAAAIKALELYKINAKLCDPH [H2C], the abundance fitness was -0.204 ± 0.081. Take KVLIERYYHQLTEGCGNEACTNEFCASCPTFLRMDNNAAAIKALELYKINAKLCDPH [H2V]: the abundance fitness is -0.044 ± 0.072. With KPLIERYYHQLTEGCGNEACTNEFCASCPTFLRMDNNAAAIKALELYKINAKLCDPH [H2P], the abundance fitness was -0.116 ± 0.077.

Take KYLIERYYHQLTEGCGNEACTNEFCASCPTFLRMDNNAAAIKALELYKINAKLCDPH [H2Y]: the abundance fitness worked out at 0.051 ± 0.094.

Consider KWLIERYYHQLTEGCGNEACTNEFCASCPTFLRMDNNAAAIKALELYKINAKLCDPH [H2W], for which the abundance fitness is -0.542 ± 0.071. Regarding KILIERYYHQLTEGCGNEACTNEFCASCPTFLRMDNNAAAIKALELYKINAKLCDPH [H2I], the abundance fitness was 0.229 ± 0.23. For KRLIERYYHQLTEGCGNEACTNEFCASCPTFLRMDNNAAAIKALELYKINAKLCDPH [H2R] the value was -0.025 ± 0.052; for KMLIERYYHQLTEGCGNEACTNEFCASCPTFLRMDNNAAAIKALELYKINAKLCDPH [H2M], -0.03 ± 0.091.

In the case of KHLNERYYHQLTEGCGNEACTNEFCASCPTFLRMDNNAAAIKALELYKINAKLCDPH [I4N], the abundance fitness was -0.042 ± 0.076. For KHLVERYYHQLTEGCGNEACTNEFCASCPTFLRMDNNAAAIKALELYKINAKLCDPH [I4V] the value was -0.047 ± 0.054; for KHLRERYYHQLTEGCGNEACTNEFCASCPTFLRMDNNAAAIKALELYKINAKLCDPH [I4R], 0.004 ± 0.051. For KHLFERYYHQLTEGCGNEACTNEFCASCPTFLRMDNNAAAIKALELYKINAKLCDPH [I4F] the value was -0.15 ± 0.093. Regarding KHLGERYYHQLTEGCGNEACTNEFCASCPTFLRMDNNAAAIKALELYKINAKLCDPH [I4G], the abundance fitness was -0.117 ± 0.045. For KHLTERYYHQLTEGCGNEACTNEFCASCPTFLRMDNNAAAIKALELYKINAKLCDPH [I4T] the value was 0.064 ± 0.072.
